# Source: PMC6650136, “Awakening the Sleeping Carboxylase Function of Enzymes: Engineering the Natural CO2-Binding Potential of Reductases” (Journal of the American Chemical Society, 2019)
# Test system: C=CC(=O)SCCNC(=O)CCNC(=O)[C@H](O)C(C)(C)COP(=O)(O)OP(=O)(O)OC[C@H]1O[C@@H](n2cnc3c(N)ncnc32)[C@H](O)[C@@H]1OP(=O)(O)O
# Assay: purified protein
# Conditions: apparent; kcat at 4.4 mM CO2, combined reduction and carboxylation
# Text: steady-state kinetics, Michaelis-Menten fit on PCSEN_ΔDH (propionyl-CoA synthase, reductase domain activity)
Substance,Km [µM],kcat [s⁻¹]
"PCSEN_ΔDH (propionyl-CoA synthase, reductase domain activity) (Erythrobacter sp. NAP1; D1302S/E1027Q)",27 ± 3,1.77 ± 0.09
"PCSEN_ΔDH (propionyl-CoA synthase, reductase domain activity) (Erythrobacter sp. NAP1; D1302S/E1027Q/T1753M)",26 ± 3,0.46 ± 0.03
"PCSEN_ΔDH (propionyl-CoA synthase, reductase domain activity) (Erythrobacter sp. NAP1; E1027Q)",14 ± 2,7.4 ± 1.0
"PCSEN_ΔDH (propionyl-CoA synthase, reductase domain activity) (Erythrobacter sp. NAP1; E1027Q/T1753M)",19.7 ± 1.2,6.5 ± 0.6
